{"source": "paper PMC2577774", "about": "(Journal of molecular biology, 2008)", "biological_target": "the molecule itself", "assay": "native MS"}
{"protein": "gp3(Δ1–152), C-terminal truncate of P22 terminase small subunit gp3 lacking ten amino acids (domain or fragment, bacteriophage P22, UniProt P04893 1-152, looked up) MAAPKGNRFWEARSSHGRNPKFESPEALWAACCEYFEWVEANPLWEMKAFSYQGEVIQEPIAKMRAMTITGLTLFIDVTLETWRTYRLREDLSEVVTRAEQVIYDQKFSGAAADLLNANIIARDLGLKEQSQVEDVTPDKGDRDKRRSRIKE", "values": [{"measurement": "stoichiometry N", "result": 9}]}
